This is an account of results in patent publication US20040072753.

Data set [1] has as its system Aβ 1-42.
The test system of data set [2] is Aβ 1-40.
In data set [3] the test system is T1, Aβ 25-35.
T1 sequence: GSNKGAIIGLM

In data set [4] the test system is T2, histone H1 peptide substrate PKTPKKAKKL
T2 sequence: PKTPKKAKKL

For “recombinant p34-cdc2/cyclin B1 (Promega)”, the “incorporation of 32P from γ32P-ATP” value in data set [1] is “Aβ 1-42, Aβ 1-40 and Aβ 25-35 incorporated 32P from γ32P-ATP”; in data set [2] it was “Aβ 1-42, Aβ 1-40 and Aβ 25-35 incorporated 32P from γ32P-ATP”; in data set [3], “Aβ 1-42, Aβ 1-40 and Aβ 25-35 incorporated 32P from γ32P-ATP”. Besides, the “Michaelis constant (KM) for the phosphorylation” value in data set [4] was “a KM of 2.7 µM for the H1 peptide substrate”.
